Usually EC50 stands for the concentration needed to bring the measured effect to its halfway point. Usually kon stands for a measure of how fast the partners come together.

Data on one molecule can be found in CN114984207A (ZHEJIANG TERUISI PHARMACEUTICAL INC, dated 2022).

One assay addresses T1, 人PD-1蛋白(Acro PD1-HB2F2) (human, UniProt Q15116 25-167, limits assumed).
T1 construct: Bought protein coated on the ELISA plate; also called 抗原PD-1蛋白; human PD-1 protein
Put plainly: ELISA, human PD-1 protein coated at 20 ng/mL, antibody titrated from 1000 ng/mL. For orientation: In an ELISA, binding on a coated surface is turned into a signal by an enzyme label.

Assay [1] deals with T2, PD-1蛋白 (冻干, fortebio assay) (UniProt Q15116 25-167, limits assumed).
T2 construct: also called 抗原PD-1蛋白; 冻干PD-1蛋白
T2 sequence (Q15116 25-167 limits assumed): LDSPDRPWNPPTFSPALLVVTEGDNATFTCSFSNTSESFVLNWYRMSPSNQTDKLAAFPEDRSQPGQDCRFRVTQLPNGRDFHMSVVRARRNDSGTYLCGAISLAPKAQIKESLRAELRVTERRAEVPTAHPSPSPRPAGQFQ
The experiment in a line: BLI (Octet K2), antibody captured on Protein A sensor, PD-1 protein as analyte from 50 nM, 2-fold dilutions.

T1 sequence (Q15116 25-167 limits assumed): as above

B1: 抗PD-1纳米抗体 N7 (Fc fusion)
chain: QVQLQESGGGLVQPGGSLRLSCAASGSTYLRFSMGWFRQVPGKEREGVAAIGGDGRTSYADSVKGRFTISKDNSKNTLYLDMNSLRAEDTAVYYCAAAVLLDGSFSLLAPLVPYKYDYWGQGTLVTVSSERKSSVECPPCPAPEFLGGPSVFLFPPKPKDTLMISRTPEVTCVVVDVSQEDPEVQFNWYVDGVEVHNAKTKPREEQFNSTYRVVSVLTVLHQDWLNGKEYKCKVSNKGLPSSIEKTISKAKGQPREPQVYTLPPSQEEMTKNQVSLTCLVKGFYPSDIAVEWESNGQPENNYKTTPPVLDSDGSFFLYSRLTVDKSRWQEGNVFSCSVMHEALHNHYTQKSLSLSLGK
As to B1, a half-maximal effect with 人PD-1蛋白(Acro PD1-HB2F2) (EC50) was put at 9.98 ng/mL. The same molecule gave a kon in assay [1] of 274000 M⁻¹ s⁻¹.
